# Like-named read-outs stand apart in the source and are kept apart here.
# Assays:
# Experiment in all cases: ITC; aliquots of HasBCTD variants (80-200 μM) injected into the cell containing HasR wild type or mutant proteins (4-15 μM); 25°C; 20 mM sodium phosphate, pH 7, 0.08% Zwittergent 3-14; fit to a model with one set of sites
# [1] = target: HasR_(ΔNterL1) (HasR_(ΔNter) with loop L1 P232GKE replaced by ATSA) (Serratia marcescens) (UniProt Q79AD2)
# [2] = target: HasR wild type (outer membrane heme transporter, TonB-dependent transporter) (Serratia marcescens)
# [3] = target: HasR_(ΔNter) (HasR without the signaling domain, linker and TonB-box) (Serratia marcescens) (UniProt Q79AD2)
# [4] = target: HasR_(ΔNterL10short) (HasR_(ΔNter) with loop L10 R774AFDRKLD replaced by ATSA) (Serratia marcescens) (UniProt Q79AD2)
# [5] = target: HasR_(ΔNterL1) (HasR_(ΔNter) with loop L1 P232GKE replaced by ATSA) (Serratia marcescens) (UniProt Q79AD2); remark: listed apart in the source
# [6] = target: HasR_(ΔNter) (HasR without the signaling domain, linker and TonB-box) (Serratia marcescens) (UniProt Q79AD2); remark: listed apart in the source
substance,measurement,setting,value
"HasBCTD (periplasmic C-terminal domain of the TonB-like protein HasB), wild type (domain or fragment)",Ka,[1],3.03e+06 M⁻¹
same,dH,[1],-9.2 kcal/mol
same,stoichiometry N,[1],1.1
same,Ka,[2],7.5e+07 M⁻¹
same,dH,[2],-19.1 kcal/mol
same,stoichiometry N,[2],1.03
same,Ka,[3],2.3e+06 M⁻¹
same,dH,[3],-11.1 kcal/mol
same,stoichiometry N,[3],1.1
same,Ka,[4],1.45e+08 M⁻¹
same,dH,[4],-2.9 kcal/mol
same,stoichiometry N,[4],0.98
same,dH,[5],9.2 kcal/mol
same,dH,[6],11.1 kcal/mol

# From paper PMC11633176
